Two molecules from PMC6593147, “COP1 regulates the stability of CAM7 to promote photomorphogenic growth” (Plant Direct, 2019) can be followed below.

The labels stand for the following.
B2: COP1‐His (natural protein)
chain: MEEISTDPVVPAVKPDPRTSSVGEGANRHENDDGGSGGSEIGAPDLDKDLLCPICMQIIKDAFLTACGHSFCYMCIITHLRNKSDCPCCSQHLTNNQLYPNFLLDKLLKKTSARHVSKTASPLDQFREALQRGCDVSIKEVDNLLTLLAERKRKMEQEEAERNMQILLDFLHCLRKQKVDELNEVQTDLQYIKEDINAVERHRIDLYRARDRYSVKLRMLGDDPSTRNAWPHEKNQIGFNSNSLSIRGGNFVGNYQNKKVEGKAQGSSHGLPKKDALSGSDSQSLNQSTVSMARKKRIHAQFNDLQECYLQKRRQLADQPNSKQENDKSVVRREGYSNGLADFQSVLTTFTRYSRLRVIAEIRHGDIFHSANIVSSIEFDRDDELFATAGVSRCIKVFDFSSVVNEPADMQCPIVEMSTRSKLSCLSWNKHEKNHIASSDYEGIVTVWDVTTRQSLMEYEEHEKRAWSVDFSRTEPSMLVSGSDDCKVKVWCTRQEASVINIDMKANICCVKYNPGSSNYIAVGSADHHIHYYDLRNISQPLHVFSGHKKAVSYVKFLSNNELASASTDSTLRLWDVKDNLPVRTFRGHTNEKNFVGLTVNSEYLACGSETNEVYVYHKEITRPVTSHRFGSPDMDDAEEEAGSYFISAVCWKSDSPTMLTANSQGTIKVLVLAA
notes: COP1 (CONSTITUTIVELY PHOTOMORPHOGENIC 1) E3 ubiquitin ligase, Arabidopsis thaliana, full-length CDS cloned into pET-20b(+); also called COP1‐6His; source: E. coli BL21 (DE3), purified by Ni‐NTA Agarose beads; not shown: His6, C-terminal, kept

In the experiment “COP1‐His” the target is B2. Put plainly: pull-down; 2 μg COP1‐His bound to Ni‐NTA beads; GST fusions or GST added in an equimolar ratio, overnight at 4°C; 50 mM Tris‐Cl pH 7.5, 100 mM NaCl, 0.2% glycerol, 0.1% triton, 1 mM EDTA, 0.1% NP‐40; anti‐GST immunoblot. The note with it: both partners purified.
The target of a further experiment is T1, GST‐CAM7 (Arabidopsis thaliana, UniProt P59220 1-149).
T1 construct: Vector pGEX-4T2; also called Calmodulin7; CAM7/ZBF3; source: E. coli BL21 (DE3), purified by Glutathione sepharose 4B beads
The description is as above. The note with it: both partners purified.

B1: GST‐HY5 (natural protein, Arabidopsis thaliana, UniProt O24646 1-168, looked up)
chain: MQEQATSSLAASSLPSSSERSSSSAPHLEIKEGIESDEEIRRVPEFGGEAVGKETSGRESGSATGQERTQATVGESQRKRGRTPAEKENKRLKRLLRNRVSAQQARERKKAYLSELENRVKDLENKNSELEERLSTLQNENQMLRHILKNTTGNKRGGGGGSNADASL
notes: Positive control of the pull-down; also called ELONGATED HYPOCOTYL5; source: E. coli BL21 (DE3), purified by Glutathione sepharose 4B beads
On to B1, for which the binding result in the experiment with COP1‐His is on record as “binds”.
Regarding B2, the binding result in the experiment with GST‐CAM7 is reported as “binds”.
